Assay [1] has as its target T1, myotoxin II from Bothrops asper (Bothrops asper, UniProt P24605 17-137, biotin (EZ-Link NHS-PEG4-Biotin, molar ratio 1:1.5 toxin:biotin)). Description: BLI. On the technique in general: In BLI a coated tip is dipped into the sample, and binding shifts an interference pattern.
Assay [2] has as its target T1, myotoxin II from Bothrops asper. Put plainly: BLI. The source holds these as a separate data set.

These results are taken from paper PMC10791742 (2024).

T1 sequence (P24605 17-137): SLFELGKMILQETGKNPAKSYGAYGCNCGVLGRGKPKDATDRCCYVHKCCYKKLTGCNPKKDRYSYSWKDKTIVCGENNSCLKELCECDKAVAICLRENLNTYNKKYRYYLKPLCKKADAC

B1: G08(LALA + YTE) human IgG1 (antibody, V domains shown)
VH: EVQLVESGGGVVQPGRSLRLSCAASGFTFSSYGMHWVRQAPGKGLEWVAVISYDGSNKYYADSVKGRFTISRDNSKNTLYLQMNSLRAEDTAVYYCARTNYDSGDAFDIWGQGTLVTVSS
VL: NFMLTQPHSVSESPGKTVTISCTRSSGSIASNYVQWYQQRPGSSPTTVIYEDNQRPSGVPDRFSGSIDSSSNSASLTISGLKTEDEADYYCQSYDSSTVVFGGGTKLTVL
Regarding B1, in assay [1], the equilibrium dissociation constant (Kd) was found to be 9.41 nM. Besides, in assay [2], the koff turned out to be 0.00283 s⁻¹.

As a reminder, the Kd is the free concentration of one partner at which half of the binding sites on the other are occupied at equilibrium, for simple one-to-one binding. Broadly, the koff is a measure of how fast the partners let go of each other.
